The source of these data is patent US9163227B2, “Anti-diabetic compounds” (PFIZER INC., priority 2011, dated 2015).

Several values for one entry are separate records, joined by “and”; a condition that tells them apart may be missing. Equal values may be shown once.

The nature of data set [1]: Body weight and liver weight in ob/ob mice. Format: in vivo. The note with it: single SC dose 3 mg/kg; for Cumulative body weight change, mean body weight: FIG. 5A; for mean liver weight: FIG. 5B. As for the experimental part:
(§1) The efficacy of FGF21 antibodies conjugates was evaluated in two murine obese insulin resistant models—ob/ob mice and high-fat diet-induced obese mice. For both models, male mice (6-8 weeks of age for ob/ob, 12-14 weeks of age for DIO with high-fat diet initiated at 6 weeks of age) were housed 2-4/cage and FGF21 antibody conjugates were administered by SC injection. Body weight was measured daily in the morning. Glucose tolerance was assessed by oral glucose tolerance test. Briefly, mice were fasted for 4-5 hrs in the morning of the day of testing. A basal blood sample was obtained and blood glucose levels were determined using a portable glucometer.

The next data set concerns ob/ob mice. In words: Oral glucose tolerance test in ob/ob mice (FGF21 conjugates). Format: in vivo. The settings on record: ob/ob mice; for Mean Glucose AUC (% of vehicle control) during OGTT: FIGS. 4A/4B, single SC dose 3 mg/kg. As for the experimental part:
as §1

Data set [2] in a line: Mouse pharmacokinetics of FGF21 antibody conjugates. It is filed as in vivo, Swiss-Webster mice. The note with it: mice. As for the experimental part: The PK of FGF21 antibody conjugates were examined in mice after IV or SC administration. […] Antibody conjugates concentrations in serum were determined using an ELISA which captured the FGF21 portion of the antibody conjugates through a monoclonal anti-hFGF21 antibody bound to a 96-well plate. FGF21 antibody conjugates bound to the plate were detected through an anti-hFc monoclonal antibody, and concentrations were determined using a standard curve of the PK dosing solution diluted into serum-containing assay buffer. SC bioavailability was calculated as the ratio of the area-under the curve (AUC) of the SC serum concentration profile divided by the AUC of the IV serum concentration profile.

The target of data set [3] is Glut1 mRNA expression in differentiated 3T3-L1 adipocytes (Mus musculus, UniProt P16092+Q99N32). In words: Glut1 Taqman assay. The note with it: differentiated 3T3-L1 adipocytes, 6 hrs; protein or antibody conjugate as labelled; read-out: Glut1 Taqman assay EC50. Format: cell-based. As for the experimental part:
Differentiated 3T3-L1 adipocytes were used to measure the Glut1 mRNA expression by qPCR method. Overnight serum starved day 10-14 differentiated 3T3-L1 adipocytes were treated with compounds for 6 hrs. Total RNA was extracted from these cells, and Glut1 and GAPDH mRNA expression was measured using a Quantitect Probe RT-PCR kit and running a quantitative real time PCR reaction in a Taqman machine (Applied Biosystems®). The bioactivity of the compounds was determined by a fold change in Glut1 mRNA levels normalized by the GAPDH mRNA levels from each sample. EC═values as measurements of the potency of the compounds were obtained from the dose response curves in the assay.
3T3-L1 adipocytes were seeded at day 8 in 24-well tissue culture plates (Falcon®, Cat#353047), and incubated in DMEM complete medium (10% FBS, 2 mM L-glutamine, 1% P/S) at 37° C., 5% CO2. […] The medium was aspirated, and then RNA extracted from the cells using the RNeasy mini Kit according to the manufacturer's instructions. RNA was measured at A260 nm using the Spectramax® Plus spectrophotometer.
In Glut1 Taqman assay, differentiated 3T3-L1 adipocytes were used to measure the Glut1 mRNA expression by real-time quantitative PCR (qPCR) method described below. Overnight serum starved day 10-14 differentiated 3T3-L1 adipocytes were treated with compounds for 6 hrs. Total RNA was extracted from these cells, and Glut1 and GAPDH mRNA expression was measured using a Quantitect Probe RT-PCR kit and running a real time quantitative PCR reaction in a Taqman machine. The bioactivity of the compounds was determined by a fold change in Glut1 mRNA levels normalized by the GAPDH mRNA levels from each sample. In cAMP assay, Chinese hamster ovary (CHO) cells over-expressing human GLP-1R(CHO-hGLP-1R) were seeded in 96-well plates in serum-free medium with 300 uM IBMX. Cells were incubated with compounds at RT for 1 hr. The cAMP levels were measured using a CisBio cAMP Kit according to manufacturer's instructions. The bioactivity of the compounds was determined by the EC50 values obtained from the assay (see Table 42).
On the technique in general: Quantitative PCR measures a nucleic acid by following its amplification.

Data set [4] concerns the target differentiated 3T3-L1 adipocytes (Mus musculus, UniProt P16092+Q99N32). The data set is described as follows: Glucose uptake assay. It is filed as cell-based. As for the experimental part:
Differentiated 3T3-L1 adipocytes were treated with compounds in the absence of serum for 24 hrs. Cells were then incubated with ^14C-2-deoxyglucose for 1 hr and glucose uptake into the cells was quantitated in Wallac 1450 MicroBeta (Trilux) instrument. Glucose uptake was expressed in counts per min (CPM). EC50 values as measurements of the potency of the compounds were obtained from the dose response curves in the assay.

[5] abbreviates: 3T3-L1 adipocytes, 24 hrs, unconjugated protein.

Chain of differentiated 3T3-L1 adipocytes (P16092 22-822): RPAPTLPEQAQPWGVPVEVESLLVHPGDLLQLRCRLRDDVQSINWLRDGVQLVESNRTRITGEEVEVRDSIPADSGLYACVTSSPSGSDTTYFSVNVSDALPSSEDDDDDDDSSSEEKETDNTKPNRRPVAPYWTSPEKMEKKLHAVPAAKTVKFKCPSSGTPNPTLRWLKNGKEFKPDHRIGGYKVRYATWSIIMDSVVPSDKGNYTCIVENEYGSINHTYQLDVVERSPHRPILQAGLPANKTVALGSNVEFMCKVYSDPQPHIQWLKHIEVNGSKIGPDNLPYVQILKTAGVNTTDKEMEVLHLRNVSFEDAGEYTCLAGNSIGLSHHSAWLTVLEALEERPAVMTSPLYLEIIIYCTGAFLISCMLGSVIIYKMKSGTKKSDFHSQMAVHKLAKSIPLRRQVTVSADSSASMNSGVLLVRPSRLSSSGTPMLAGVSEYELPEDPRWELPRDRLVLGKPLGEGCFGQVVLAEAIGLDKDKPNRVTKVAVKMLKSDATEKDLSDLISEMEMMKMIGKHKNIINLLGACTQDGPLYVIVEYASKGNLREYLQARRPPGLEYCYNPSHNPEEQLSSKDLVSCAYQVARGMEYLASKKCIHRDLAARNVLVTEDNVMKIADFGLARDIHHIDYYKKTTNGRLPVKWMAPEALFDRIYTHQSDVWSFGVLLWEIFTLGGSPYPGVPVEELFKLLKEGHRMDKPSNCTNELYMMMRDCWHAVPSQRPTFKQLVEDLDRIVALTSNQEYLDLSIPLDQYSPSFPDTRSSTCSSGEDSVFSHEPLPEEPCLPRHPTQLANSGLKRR
Chain of differentiated 3T3-L1 adipocytes (Q99N32 whole entry): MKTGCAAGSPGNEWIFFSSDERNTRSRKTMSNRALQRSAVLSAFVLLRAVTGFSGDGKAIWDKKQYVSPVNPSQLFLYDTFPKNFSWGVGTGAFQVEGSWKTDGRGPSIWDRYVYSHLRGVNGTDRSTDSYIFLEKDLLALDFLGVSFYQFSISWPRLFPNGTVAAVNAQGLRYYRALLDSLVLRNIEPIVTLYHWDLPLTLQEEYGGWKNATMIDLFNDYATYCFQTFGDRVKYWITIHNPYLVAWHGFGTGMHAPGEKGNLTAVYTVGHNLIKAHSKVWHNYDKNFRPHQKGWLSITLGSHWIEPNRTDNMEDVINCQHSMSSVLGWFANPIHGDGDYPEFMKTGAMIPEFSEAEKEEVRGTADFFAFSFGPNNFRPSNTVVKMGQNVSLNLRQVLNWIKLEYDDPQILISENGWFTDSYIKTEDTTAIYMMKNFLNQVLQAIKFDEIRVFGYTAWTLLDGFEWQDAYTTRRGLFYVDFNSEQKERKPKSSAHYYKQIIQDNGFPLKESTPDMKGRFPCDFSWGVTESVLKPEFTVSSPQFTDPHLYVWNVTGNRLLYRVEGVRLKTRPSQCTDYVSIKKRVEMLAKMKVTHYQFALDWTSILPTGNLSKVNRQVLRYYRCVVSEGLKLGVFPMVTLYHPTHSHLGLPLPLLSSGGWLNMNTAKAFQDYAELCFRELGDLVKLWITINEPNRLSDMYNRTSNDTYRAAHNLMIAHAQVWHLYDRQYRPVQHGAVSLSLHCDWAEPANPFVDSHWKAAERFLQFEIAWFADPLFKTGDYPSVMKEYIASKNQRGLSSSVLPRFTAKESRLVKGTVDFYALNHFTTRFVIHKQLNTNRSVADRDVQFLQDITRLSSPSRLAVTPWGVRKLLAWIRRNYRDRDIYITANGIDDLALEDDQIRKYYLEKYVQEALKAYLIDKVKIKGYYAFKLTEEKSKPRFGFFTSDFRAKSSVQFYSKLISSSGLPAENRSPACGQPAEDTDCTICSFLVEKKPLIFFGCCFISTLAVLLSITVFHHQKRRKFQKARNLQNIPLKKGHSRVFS
Chain of Glut1 mRNA expression in differentiated 3T3-L1 adipocytes (P16092 22-822): as the sequence (P16092 22-822) above
Chain of Glut1 mRNA expression in differentiated 3T3-L1 adipocytes (Q99N32 whole entry): as the sequence (Q99N32 whole entry) above

B1: Ab-L5-FGF21ΔH-Knull-H1K: SEQ ID NO:23 combined with L5 at H1K and conjugated with h38C2 (conjugate, listed as Homo sapiens)
chain: KPIPDSSPLLQFGGQVRQRYLYTDDAQQTEAHLEIREDGTVGGAADQSPESLLQLRALRPGVIQILGVRTSRFLCQRPDGALYGSLHFDPEACSFRELLLEDGYNVYQSEAHGLPLHLPGNRSPHRDPAPRGPARFLPLPGLPPALPEPPGILAPQPPDVGSSDPLSMVGPSQGRSPSYAS
modifications: L5 linker at K1 conjugated to h38C2 antibody
For the molecule B1, in data set [1], the “Cumulative body weight change, mean body weight” value stood at 2.6 g and the “mean liver weight” value was determined as 2.4 g. Also, in the data set with ob/ob mice, the “Mean Glucose AUC (% of vehicle control) during OGTT” value is recorded as 100 % of vehicle control and the “glucose tolerance in ob/ob mice (in words)” value was “compared poorly against Ab-FGF21ΔH-H125C”.

B2: FGF21ΔH-Knull-H1K: FGF21 lysine-null mutant with H1K, SEQ ID NO:23 (protein, listed as Homo sapiens)
chain: KPIPDSSPLLQFGGQVRQRYLYTDDAQQTEAHLEIREDGTVGGAADQSPESLLQLRALRPGVIQILGVRTSRFLCQRPDGALYGSLHFDPEACSFRELLLEDGYNVYQSEAHGLPLHLPGNRSPHRDPAPRGPARFLPLPGLPPALPEPPGILAPQPPDVGSSDPLSMVGPSQGRSPSYAS
Broadly, the EC50 is the concentration that produces a half-maximal response. For B2, in data set [2], the IV half-life worked out at 16 h, the SC bioavailability came to 51% and the SC half-life came to 11 h. Besides, the EC50 in data set [3] is 6.4 nM and 4.3 nM.

B3: Ab-L5-FGF21ΔH-K59: SEQ ID NO:19 combined with L5 at K59 and conjugated with h38C2 (conjugate, listed as Homo sapiens)
chain: PIPDSSPLLQFGGQVRQRYLYTDDAQQTEAHLEIREDGTVGGAADQSPESLLQLRALKPGVIQILGVRTSRFLCQRPDGALYGSLHFDPEACSFRELLLEDGYNVYQSEAHGLPLHLPGNRSPHRDPAPRGPARFLPLPGLPPALPEPPGILAPQPPDVGSSDPLSMVGPSQGRSPSYAS
modifications: L5 linker at K59 conjugated to h38C2 antibody
B3: in data set [2], the IV half-life came out at 13 h. In data set [1], the “Cumulative body weight change, mean body weight” value is reported as 2.7 g and the “mean liver weight” value stood at 2.4 g. The EC50 in data set [3] turned out to be 6.5 nM. Moreover, the “Mean Glucose AUC (% of vehicle control) during OGTT” value with ob/ob mice is on record as 105 % of vehicle control.

B4: FGF21ΔH-L86C: FGF21 cysteine mutant, SEQ ID NO:14 (protein, listed as Homo sapiens)
chain: PIPDSSPLLQFGGQVRQRYLYTDDAQQTEAHLEIREDGTVGGAADQSPESLLQLKALKPGVIQILGVKTSRFLCQRPDGALYGSCHFDPEACSFRELLLEDGYNVYQSEAHGLPLHLPGNKSPHRDPAPRGPARFLPLPGLPPALPEPPGILAPQPPDVGSSDPLSMVGPSQGRSPSYAS
Regarding B4, in data set [4] (unconjugated protein (per Examples 18-21), n in parentheses), the 50% effective concentration (EC50) stood at 62 nM.

B5: FGF21ΔH-K56-K59R-K69R-K122R: FGF21 lysine mutant, SEQ ID NO:18 (protein, listed as Homo sapiens)
chain: PIPDSSPLLQFGGQVRQRYLYTDDAQQTEAHLEIREDGTVGGAADQSPESLLQLKALRPGVIQILGVRTSRFLCQRPDGALYGSLHFDPEACSFRELLLEDGYNVYQSEAHGLPLHLPGNRSPHRDPAPRGPARFLPLPGLPPALPEPPGILAPQPPDVGSSDPLSMVGPSQGRSPSYAS
Take B5: the results for the EC50 in data set [3] and in data set [4] (setting [5]) were 0.9 nM and 5.5 nM, respectively.

B6: Ab-L5-FGF21ΔH-Knull-P2: SEQ ID NO:22 combined at the N' terminus of P2 with L5 and conjugated with h38C2 (conjugate, listed as Homo sapiens)
chain: PIPDSSPLLQFGGQVRQRYLYTDDAQQTEAHLEIREDGTVGGAADQSPESLLQLRALRPGVIQILGVRTSRFLCQRPDGALYGSLHFDPEACSFRELLLEDGYNVYQSEAHGLPLHLPGNRSPHRDPAPRGPARFLPLPGLPPALPEPPGILAPQPPDVGSSDPLSMVGPSQGRSPSYAS
modifications: L5 linker at N-terminus, conjugated to h38C2 antibody
In data set [2], B6 had an IV half-life of 17 h. For the same molecule, in data set [3], the half-maximal effective concentration (EC50) stood at 16.6 nM.

B7: FGF21ΔH-K56R-K59-K69R-K122R: FGF21 lysine mutant, SEQ ID NO:19 (protein, listed as Homo sapiens)
chain: PIPDSSPLLQFGGQVRQRYLYTDDAQQTEAHLEIREDGTVGGAADQSPESLLQLRALKPGVIQILGVRTSRFLCQRPDGALYGSLHFDPEACSFRELLLEDGYNVYQSEAHGLPLHLPGNRSPHRDPAPRGPARFLPLPGLPPALPEPPGILAPQPPDVGSSDPLSMVGPSQGRSPSYAS
Turning to B7, the concentration for a half-maximal effect (EC50) was 0.6 nM in data set [3] and 0.9 nM in data set [4] (setting [5]).

B8: FGF21ΔH-K56-K59R-K69R-K122: FGF21 lysine mutant, SEQ ID NO:21 (protein, listed as Homo sapiens)
chain: PIPDSSPLLQFGGQVRQRYLYTDDAQQTEAHLEIREDGTVGGAADQSPESLLQLRALRPGVIQILGVRTSRFLCQRPDGALYGSLHFDPEACSFRELLLEDGYNVYQSEAHGLPLHLPGNKSPHRDPAPRGPARFLPLPGLPPALPEPPGILAPQPPDVGSSDPLSMVGPSQGRSPSYAS
For B8, the EC50 turned out to be 2.6 nM in data set [3] and 1.7 nM in data set [4] (setting [5]).

B9: FGF21ΔH-K56R-K59R-K69-K122R: FGF21 lysine mutant, SEQ ID NO:20 (protein, listed as Homo sapiens)
chain: PIPDSSPLLQFGGQVRQRYLYTDDAQQTEAHLEIREDGTVGGAADQSPESLLQLRALRPGVIQILGVKTSRFLCQRPDGALYGSLHFDPEACSFRELLLEDGYNVYQSEAHGLPLHLPGNRSPHRDPAPRGPARFLPLPGLPPALPEPPGILAPQPPDVGSSDPLSMVGPSQGRSPSYAS
Turning to B9, the EC50 was found to be 1.3 nM in data set [3] and 5.2 nM in data set [4] (setting [5]).
